Test results reported in the DeepSol protein solubility set.

Test: soluble on expression in E. coli; label from the status in PepcDB or PDB records

Sequence | soluble on expression in E. coli
MPDTSFSNPGLFTPLQLGSLSLPNRVIMAPLTRSRTPDSVPGRLQQIYYGQRASAGLIISEATNISPTARGYVYTPGIWTDAQEAGWKGVVEAVHAKGGRIALQLWHVGRVSHELVQPDGQQPVAPSALKAEGAECFVEFEDGTAGLHPTSTPRALETDEIPGIVEDYRQAAQRAKRAGFDMVEVHAANACLPNQFLATGTNRRTDQYGGSIENRARFPLEVVDAVAEVFGPERVGIRLTPFLELFGLTDDEPEAMAFYLAGELDRRGLAYLHFNEPDWIGGDITYPEGFREQMRQRFKGGLIYCGNYDAGRAQARLDDNTADAVAFGRPFIANPDLPERFRLGAALNEPDPSTFYGGAEVGYTDYPFLDNGHDRLG | soluble
MGKNDQYYAVARGKQVGIYRTWNECKTQIDGFQNARFKKFATEAEARKFVADNMSVPGSKPVTPAVSTSSATRKRTHEGTKFTEAKKMKTEEEVIDPEFANAPVVYTDGACSSNGTKNAKAGWGVYWGDDSEDNEFGPVYGAPTNNRGELIAVQKAIEKAIEKRLPKVVIKTDSNLLVQSMNIWIHGWKRKGWKTSTGSEVLNQDVLMKIDNLRQKLKVKFLHVRGHAGIDGNEKADELARKGAQMFIKRS | not soluble
MSVIKIEKALKLDKVIFVDVRTEGEYEEDHILNAINMPLFKNNEHNEVGTIYKMQGKHEAIQKGFDYVSYKLKDIYLQAAELALNYDNIVIYCARGGMRSGSIVNLLSSLGVNVYQLEGGYKAYRNFVLEYLRHVMDTKNFVSVHGLTGTGKTDLLHLLDENGIDVLDLEGIAKNSGSTFGFITFDKKPPSQKNFETKLFESIFFSKENYIFVESESKRVGSVTVPNEIFEAMTREGHHILLECDIENRVDRLCRDYIYDKDEGNILILKECINKFRKRLGNKVVDDYIDLLESGEYKELVKRYLLEYYDPLYMHSVEKYKYSKIINFNDTQKALEDVIDLYESILEGESEC | not soluble
NKPSLLLYIHGFNSSPLSHKAQVMAEYCKVHRPDIKVIVPRLPSYPSQAAEFLVQLVEEYKDTHQIGLVGSSLGGYLSTWLNHQYGFKAALVNPAVKPYELLADYLGKQVNPYTQEEYFLEEKHMEELLALQVETLHSVDDLWLLQQEGDEVLDYRQAVDKYLACKQTIEKGGDHSFVNFERYPEQIIQFLN | not soluble
MGSDKIHHHHHHMMDFYIKQIIIHQFSPNDTELVLSDTPLTLTPRIDDYFRKKLSKVFSDEAKRGYFGEDNVFMSHLQDDLYVSSCQIAQLWKEEFVISEDQKTNDLVFIQFDKDGMEHFAFLRISLKEQFAHVSENQEQPITITQNNLPSAAQTPDEALVVNKSSKQYYLIEKRIKHNGSFANYFSENLLQVQPEQSVKKSIKMVEQTAQKIAENFNKDDFSFQSKMKSAIYKNLEEEQELSPEKLADQLFDDNLTARLTFVDELKDAIPGPVQVSDIDHSRQIKKLENQKLSLSNGIELIVPNNVYQDAESVEFIQNPDGTYSILIKNIQDIQNK | not soluble
MGSDKIHHHHHHMRIVVSGGGTGGHIYPALAMIREIERRTPCEVLYIGTENGLEADIVRRAGIPFESIEISGIRRSLSFENVKTGFRFLKSVVRVRKLLRDFQPDIVVGTGGFVCGPVLYTAAKMGYKTLVHEQNSLPGITNKFLARYVDRVALSFKGSGHHFGKNKGKTILIGNPRASEVAMLQIDPVEEKRKYGFEQDRPLIVVYGGSRGAPAINKAVVDMIPKLTETDWSLLFVTGQVHYEDIQAQLGTLPDRIQLRPFIYDLPLILKASQLVISRSGASTLAELTTLGLPSILIPSPYVTENHQEVNASSLVETGASLLIRESELTGDRLFDACTKAIADQADMSKASLALGMPNAASDLVDELLRLIQRKN | not soluble
MASYTSEQAEALLKLQFDKYAKFIDDEVWAEVEGYYHPSGVLVHKGKEAVYGNKDKSTYIAKFAEGTGKSVGTTTNAKYEGSGDYLIITADFSSETEKAGTVKGRFVQI | not soluble
